In patent publication US20250154198A1, “PEPTIDE INHIBITORS OF INTERLEUKIN-23 RECEPTOR” (Zealand Pharma A/S, priority 2021, published 2025):
Where two headings read alike, the source gives them in different places. *1 amine or outer side, *2 acyl side, *3 side chain or, on linkers, in order; H or OH if unused. Where a SMILES comes first, the peptide text is derived from it. Bridges are numbered along the chain shown (N, C = ends). Where no end group is shown, it is not given here. [ ]: non-standard residue; d: D form. 4‑Aminomethyl‑phenylacetyl = 4-aminomethyl-phenylacetyl unit, its amine closes the lactam, O=C(Cc1ccc(CN[*:1])cc1)[*:2]; 1,3‑dibromopropan‑2‑one = linker (CAS 816-39-7) joining two Cys as 1,3-dithio-propan-2-one bridge -SCH2C(=O)CH2S-; Phe(3,4-Me2) = Cc1ccc(C[C@H](N)C(=O)O)cc1C; 2Nal = N[C@@H](Cc1ccc2ccccc2c1)C(=O)O; AEF = NCCOc1ccc(C[C@H](N)C(=O)O)cc1; 3Pal = N[C@@H](Cc1cccnc1)C(=O)O; 4Pal = N[C@@H](Cc1ccncc1)C(=O)O; αMeL = CC(C)C[C@](C)(N)C(=O)O; CH2COCH2 = O=C(C[*:1])C[*:2]; αMeV = CC(C)[C@](C)(N)C(=O)O; 3Amb = NCc1cccc(C(=O)O)c1; Orn = NCCC[C@H](N)C(=O)O; Dab = NCC[C@H](N)C(=O)O

T1: human IL-23R (Homo sapiens, UniProt Q5VWK5)
T1 construct: UniProtKB—Q5VWK5, amino acids 22-629; secretion signal of the plasmid (Promega N1371); expressed in transfected cells
T1 sequence (Q5VWK5 22-629): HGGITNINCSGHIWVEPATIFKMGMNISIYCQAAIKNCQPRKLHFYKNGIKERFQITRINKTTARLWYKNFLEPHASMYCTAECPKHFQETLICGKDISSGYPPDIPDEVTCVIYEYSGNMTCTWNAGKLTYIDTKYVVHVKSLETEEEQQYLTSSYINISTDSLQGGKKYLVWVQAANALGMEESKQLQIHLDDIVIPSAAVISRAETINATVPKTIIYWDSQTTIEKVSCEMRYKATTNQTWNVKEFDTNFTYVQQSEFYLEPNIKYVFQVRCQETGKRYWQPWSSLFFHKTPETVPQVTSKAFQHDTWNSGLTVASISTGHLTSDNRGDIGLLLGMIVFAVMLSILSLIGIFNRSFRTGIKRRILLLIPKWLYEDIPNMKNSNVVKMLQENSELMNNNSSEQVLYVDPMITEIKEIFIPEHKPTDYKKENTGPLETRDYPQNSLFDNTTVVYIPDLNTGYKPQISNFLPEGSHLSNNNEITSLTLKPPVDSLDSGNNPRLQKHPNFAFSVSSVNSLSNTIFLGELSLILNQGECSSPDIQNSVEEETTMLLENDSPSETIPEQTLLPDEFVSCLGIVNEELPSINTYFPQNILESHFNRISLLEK

T2: human IL-23R endogenously expressed on DB cells (CRL-2289) (human, UniProt Q5VWK5 24-629)
T2 sequence (looked up): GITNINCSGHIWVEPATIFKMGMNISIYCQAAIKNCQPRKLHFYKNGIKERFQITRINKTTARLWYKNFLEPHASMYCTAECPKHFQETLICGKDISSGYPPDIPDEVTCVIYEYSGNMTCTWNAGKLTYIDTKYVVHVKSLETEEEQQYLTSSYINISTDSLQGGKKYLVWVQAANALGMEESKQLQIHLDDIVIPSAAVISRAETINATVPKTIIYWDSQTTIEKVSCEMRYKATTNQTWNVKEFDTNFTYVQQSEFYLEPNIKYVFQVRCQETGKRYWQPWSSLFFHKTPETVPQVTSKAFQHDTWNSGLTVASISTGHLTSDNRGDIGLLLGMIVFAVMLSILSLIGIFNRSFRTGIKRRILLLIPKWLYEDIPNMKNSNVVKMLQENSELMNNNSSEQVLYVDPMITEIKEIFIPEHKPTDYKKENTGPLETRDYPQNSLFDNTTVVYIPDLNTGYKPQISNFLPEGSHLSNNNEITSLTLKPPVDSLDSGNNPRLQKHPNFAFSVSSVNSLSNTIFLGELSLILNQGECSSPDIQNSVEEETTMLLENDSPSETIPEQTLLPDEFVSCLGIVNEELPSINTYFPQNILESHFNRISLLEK

B1: Compound 158 (peptide)
peptide: [4‑Aminomethyl‑phenylacetyl]IEWQ[Dab][AEF][Phe(3,4-Me2)][αMeV]EG[3Pal]-NH2
modifications: lactam (positions not given here); lactam 3-6; not fully specified (bridges); printed as [4-Aminomethyl-phenylacetyl](1c)*IE(2c)WQ[Dab](2c)[Y(2-aminoethoxy)][F(3,4-Me)][2-Me-Val]E(1c)G[3-(3-Pyridyl)-Ala]-[NH2]
B2: Ref 2 (peptide)
peptide: DESSWQSWWLKR
HELM: PEPTIDE1{D.E.S.S.W.Q.S.W.W.L.K.R.[am]}$PEPTIDE1,PEPTIDE1,2:R3-11:R3$$$V2.0
SMILES: CC(C)C[C@@H]1NC(=O)[C@H](Cc2c[nH]c3ccccc23)NC(=O)[C@H](Cc2c[nH]c3ccccc23)NC(=O)[C@H](CO)NC(=O)[C@H](CCC(N)=O)NC(=O)[C@H](Cc2c[nH]c3ccccc23)NC(=O)[C@H](CO)NC(=O)[C@H](CO)NC(=O)[C@@H](NC(=O)[C@@H](N)CC(=O)O)CCC(=O)NCCCC[C@@H](C(=O)N[C@@H](CCCNC(=N)N)C(N)=O)NC1=O
B3: Ref 3 (peptide)
peptide: DESTWQYWWLKR
HELM: PEPTIDE1{D.E.S.T.W.Q.Y.W.W.L.K.R.[am]}$PEPTIDE1,PEPTIDE1,2:R3-11:R3$$$V2.0
SMILES: CC(C)C[C@@H]1NC(=O)[C@H](Cc2c[nH]c3ccccc23)NC(=O)[C@H](Cc2c[nH]c3ccccc23)NC(=O)[C@H](Cc2ccc(O)cc2)NC(=O)[C@H](CCC(N)=O)NC(=O)[C@H](Cc2c[nH]c3ccccc23)NC(=O)[C@H]([C@@H](C)O)NC(=O)[C@H](CO)NC(=O)[C@@H](NC(=O)[C@@H](N)CC(=O)O)CCC(=O)NCCCC[C@@H](C(=O)N[C@@H](CCCNC(=N)N)C(N)=O)NC1=O
B4: Ref 4 (peptide)
peptide: DESMWQMWWLKR
HELM: PEPTIDE1{[ac].D.E.S.M.W.Q.M.W.W.L.K.R.[am]}$PEPTIDE1,PEPTIDE1,3:R3-12:R3$$$V2.0
SMILES: CSCC[C@@H]1NC(=O)[C@H](CO)NC(=O)[C@@H](NC(=O)[C@H](CC(=O)O)NC(C)=O)CCC(=O)NCCCC[C@@H](C(=O)N[C@@H](CCCNC(=N)N)C(N)=O)NC(=O)[C@H](CC(C)C)NC(=O)[C@H](Cc2c[nH]c3ccccc23)NC(=O)[C@H](Cc2c[nH]c3ccccc23)NC(=O)[C@H](CCSC)NC(=O)[C@H](CCC(N)=O)NC(=O)[C@H](Cc2c[nH]c3ccccc23)NC1=O

Columns and labels:
[1] = molecular target: T1, human IL-23R; experiment: Binding assay (NanoBRET displacement of fluorophore-labelled reference compound) for estimating binding affinity to human IL-23R
Text: Binding Assay for Estimating Binding Affinity of Compounds to Human IL-23R
The compound binding affinity for IL-23R was estimated by the ability of compounds to displace a fluorophore-labelled reference compound from the human IL-23R. The assay principle relies on Bioluminescence Resonance Energy Transfer (BRET) between a fluorophore-labelled reference compound binding to the IL-23R part of a fusion protein consisting of the IL-23R fused to a Nanoluc luciferase enzyme (Nanoluc). The Nanoluc is placed in the N-terminus in close proximity to the binding domain of the ligand. Upon close proximity between the fluorophore of the fluorophore-labelled compound and the Nanoluc of the fusion protein, bioluminescence energy generated from conversion of a Nanoluc substrate, is transferred to the fluorophore resulting in an increase in BRET. In presence of an unlabelled compound, the unlabelled compound displaces the fluorophore-labelled peptide from its binding site resulting in a decrease in BRET. The concentration for which half of the fluorophore-labelled peptide is displaced by the unlabelled compound depends on the affinity of the compound for the IL-23R, and is termed the IC50 concentration. An estimated affinity (K) of the unlabelled compound for the IL-23R may be calculated using the Cheng-Prussov equation, which takes into account the concentration of the fluorophore-labelled compound used, and the affinity of the fluorophore-labelled compound for IL-23R.
The plasmid also contained a gene to confer resistance for the antibiotic hygromycin. A cell line stably expressing the Nluc-IL23R fusion protein was generated by transfection of HEK293 cells with the expression plasmid and selected with hygromycin for 3 weeks in Growth medium consisting of DMEM w/Glutamax-I containing, 10% V/V FBS, 1% V/V P/S, 1 mM Sodium Pyruvate, and 1×NEAA, and 0.3 mg/mL hygromycin. The remaining cells were propagated and considered a stable expressing Nluc-IL23R fusion protein pool clone.
Cells expressing the Nluc-IL23R fusion protein were expanded in Growth medium and membranes prepared by homogenization of a cell pellet from 18 T175 flasks (4° C. in subsequent steps). The cell pellet was lysed Tris 10 mM, 7.5, 1 mM EDTA and protease inhibitors (Complete, Roche) and homogenized using a 15 mL glass-dounce by 50 strokes. The homogenate was spun at spin @1500 rpm for 10 min, the supernatant transferred to SV-34 tubes and spun at 40000 g for 20 min at 4° C. to pellet the crude membranes. The supernatant was then removed, the pellet resuspended in 5 mL buffer containing 50 mM HEPES pH 7.4, 5 mM EGTA, and 5 mM MgCl2, and homogenized. Aliquots of the resuspended and homogenized membranes containing the Nluc-IL23R fusion protein were stored at −80° C. until use.
The plate was sealed with light impermeable plate seals, and incubated on a orbital shaker 400 rpm for 2 hours at room temperature. To determine the BRET ratio, the plate seal was removed and 25 μL of the Nanoluc substrate (Promega N1572) diluted 1:500 was added to each well and incubated for 1-2 minutes on an orbital shaker at 400 rpm. […] The BRET ratio was calculated as the fluorescence from the TAMRA/nanoluc bioluminescence. The IC50 for each compound was determined by computer-aided curve fitting using a 4-parameter logistic (4PL) non-linear model.

[2] = molecular target: T2, human IL-23R endogenously expressed on …; experiment: cell-based or functional assay
[3] = Table 3-1, read-out: Ki hIL-23R

Molecule	IC50 (pSTAT3) [2]	other results
CC(C)C[C@@H]1NC(=O)[C@H](Cc2c[nH]c3ccccc23)NC(=O)[C@H](Cc2c[nH]c3ccccc23)NC(=O)[C@@H]2CSSC[C@H](NC(=O)[C@H](CO)NC(=O)[C@@H](NC(=O)[C@@H](N)CC(=O)O)CSCC(=O)CSC[C@@H](C(=O)N[C@@H](CCCNC(=N)N)C(N)=O)NC1=O)C(=O)N[C@@H](Cc1c[nH]c3ccccc13)C(=O)N[C@@H](CCC(N)=O)C(=O)N2 [Compound 53, H-DC(1a)SC(2b)WQC(2b)WWLC(1a)R-[NH2]]		Ki [1]: > 1000 nM
CC(C)C[C@]1(C)NC(=O)[C@H](Cc2ccc3ccccc3c2)NC(=O)[C@H](Cc2ccc(OCCN)cc2)NC(=O)[C@@H]2CCCNC(=O)CC[C@H](NC(=O)[C@H](CO)NC(=O)c3cccc(c3)CNC(=O)CC[C@@H](C(=O)N[C@@H](CCCNC(=N)N)C(N)=O)NC1=O)C(=O)N[C@@H](Cc1c[nH]c3ccccc13)C(=O)N[C@@H](CCC(N)=O)C(=O)N2 [Compound 69, [(3-Aminomethyl)benzoyl](1c)*SE(2c)WQ[Orn](2c)[Y(2-aminoethoxy)][2-Nal][2-Me-Leu]E(1c)R-[NH2]] ([3Amb]SEWQ[Orn][AEF][2Nal][αMeL]ER-NH2; lactam 3-6, N-10)		Ki [1, 3]: 2.76 nM
CC(C)C[C@]1(C)NC(=O)[C@H](Cc2ccc3ccccc3c2)NC(=O)[C@H](Cc2ccc(OCCN)cc2)NC(=O)[C@@H]2CSCC(=O)CSC[C@H](NC(=O)[C@H](CO)NC(=O)c3cccc(c3)CNC(=O)CC[C@@H](C(=O)N[C@@H](CCCNC(=N)N)C(=O)N[C@@H](Cc3ccncc3)C(N)=O)NC1=O)C(=O)N[C@@H](Cc1c[nH]c3ccccc13)C(=O)N[C@@H](CCC(N)=O)C(=O)N2 [Compound 79, [(3-Aminomethyl)benzoyl](1c)*SC(2a)WQC(2a)[Y(2-aminoethoxy)][2-Nal][2-Me-Leu]E(1c)R[3-(4-Pyridyl)-Ala]-[NH2]] ([3Amb]SCWQC[AEF][2Nal][αMeL]ER[4Pal]-NH2; linker 3-6 via CH2COCH2; lactam N-10)		Ki [1, 3]: 2.09 nM
CC[C@H](C)[C@@H]1NC(=O)c2cccc(c2)CNC(=O)CC[C@@H](C(=O)N[C@@H](CCN)C(=O)N[C@@H](Cc2cccnc2)C(N)=O)NC(=O)[C@](C)(C(C)C)NC(=O)[C@H](Cc2ccc3ccccc3c2)NC(=O)[C@H](Cc2ccc(OCCN)cc2)NC(=O)[C@@H]2CCNC(=O)CC[C@H](NC1=O)C(=O)N[C@@H](Cc1c[nH]c3ccccc13)C(=O)N[C@@H](CCC(N)=O)C(=O)N2 [Compound 156, [(3-Aminomethyl)benzoyl](1c)*IE(2c)WQ[Dab](2c)[Y(2-aminoethoxy)][2-Nal][2-Me-Val]E(1c)[Dab][3-(3-Pyridyl)-Ala]-[NH2]] ([3Amb]IEWQ[Dab][AEF][2Nal][αMeV]E[Dab][3Pal]-NH2; lactam 3-6, N-10)		Ki [1, 3]: 0.0157 nM
B1	0.635 nM	
B2	> 1 µM	
B3	> 1 µM	
B4	> 1 µM	
Ac-DECWQCWWLKR-NH2 (lactam 2-10; linker 3-6 via 1,3‑dibromopropan‑2‑one) [Ref 5]	> 1 µM	
Ac-DESCWCWWLKR-NH2 (lactam 2-10; linker 4-6 via 1,3‑dibromopropan‑2‑one) [Ref 6]	> 1 µM	
Ac-DESCWQCWWKR-NH2 (lactam 2-10; linker 4-7 via 1,3‑dibromopropan‑2‑one) [Ref 7]	> 1 µM	
